These results are taken from publication PMC7021693.

Read-outs that look alike come from different tables or passages of the source.

Data set [1] addresses VEGF-A165 (Homo sapiens) (UniProt P15692). Conditions: cited from earlier work.
Data set [2] shares this target. Particulars: cited from earlier work. The source holds these as a separate data set.
Data set [3] in a line: SEC; as a9; sample: ziv-AFL diluted in GndHCl 8 M. In general terms: SEC sorts molecules by how far they enter the pores of the column.
Data set [4] can be described thus: SEC; as a9; sample: ziv-AFL diluted in NaCl 1.5 M.
Data set [5] can be described thus: SEC; as a9; sample: ziv-AFL 25 mg/mL, 60 °C for 1 h.
Data set [6] can be described thus: SEC; as a9; sample: ziv-AFL 25 mg/mL, 60 °C for 3 h.
Data set [7] in a line: SEC; as a9; sample: ziv-AFL medicine adjusted to pH 5.2.
The target in data set [8] is ziv-aflibercept (Zaltrap, 25 mg/mL) (human). Briefly: SEC; as a9; sample: ziv-AFL diluted in GndHCl 8 M.
The target is the same in data set [9]. In words: SEC; as a9; sample: ziv-AFL diluted in NaCl 1.5 M.
The target is the same in data set [10]. In words: SEC; as a9; sample: ziv-AFL 25 mg/mL, 60 °C for 1 h.
The target is the same in data set [11]. In words: SEC; as a9; sample: ziv-AFL 25 mg/mL, 60 °C for 2 h.
Data set [12] has the same target. In words: SEC; as a9; sample: ziv-AFL 25 mg/mL, 60 °C for 3 h.
Data set [13] shares this target. In words: SEC; as a9; sample: ziv-AFL medicine adjusted to pH 5.2.
For data set [14] the target is unchanged. Briefly: SEC; as a9; sample: ziv-AFL medicine adjusted to pH 7.2.
Data set [15] has the same target. In words: SEC; as a9; sample: ziv-AFL 25 mg/mL, 1 freeze-thaw cycle.
For data set [16] the target is unchanged. In words: SEC; as a9; sample: ziv-AFL 25 mg/mL, 2 freeze-thaw cycles.
For data set [17], the target named is VEGF (UniProt P15692). In words: ELISA; as a1; sample: ziv-AFL medicine adjusted to pH 7.2 with 1 M NH3. In general terms: An ELISA detects its analyte on a solid surface through an enzyme-linked reagent.
The target of data set [18] is VEGF (UniProt P15692). In words: ELISA; as a1; sample: ziv-AFL medicine adjusted to pH 5.2 with 0.1 M HCl.
In data set [19] the target is ziv-aflibercept (Zaltrap, 25 mg/mL) (human). In words: SEC; as a9; sample: ziv-AFL 25 mg/mL, light irradiation (250 W/m^2) for 12 h.
Data set [20] shares this target. The description is as above. The source holds these as a separate data set.
For data set [21] the target is unchanged. Briefly: SEC; SE-HPLC/DAD, SEC-5 column, 25 °C, 150 mM phosphate pH 7.0, 0.35 mL/min, 1 ul injected; masses estimated from the column calibration; sample: fresh (control) ziv-AFL 25 mg/mL.

Chain of ziv-aflibercept (Zaltrap, 25 mg/mL) (Fc fusion) (chain): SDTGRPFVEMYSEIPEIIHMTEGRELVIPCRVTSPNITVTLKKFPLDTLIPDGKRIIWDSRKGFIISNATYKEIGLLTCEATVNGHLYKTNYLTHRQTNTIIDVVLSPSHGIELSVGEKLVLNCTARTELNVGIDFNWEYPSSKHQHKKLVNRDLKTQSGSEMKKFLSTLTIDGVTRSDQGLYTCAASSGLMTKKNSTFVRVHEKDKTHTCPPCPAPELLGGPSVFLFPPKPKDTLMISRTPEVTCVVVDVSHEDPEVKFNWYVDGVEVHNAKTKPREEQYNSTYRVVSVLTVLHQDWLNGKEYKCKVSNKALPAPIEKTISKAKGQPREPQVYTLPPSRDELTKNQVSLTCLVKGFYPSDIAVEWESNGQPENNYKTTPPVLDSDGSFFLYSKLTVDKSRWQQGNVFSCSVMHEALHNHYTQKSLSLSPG
Chain of ziv-aflibercept (Zaltrap, 25 mg/mL) (chain): as above
Chain of VEGF-A165 (Homo sapiens) (P15692 whole entry): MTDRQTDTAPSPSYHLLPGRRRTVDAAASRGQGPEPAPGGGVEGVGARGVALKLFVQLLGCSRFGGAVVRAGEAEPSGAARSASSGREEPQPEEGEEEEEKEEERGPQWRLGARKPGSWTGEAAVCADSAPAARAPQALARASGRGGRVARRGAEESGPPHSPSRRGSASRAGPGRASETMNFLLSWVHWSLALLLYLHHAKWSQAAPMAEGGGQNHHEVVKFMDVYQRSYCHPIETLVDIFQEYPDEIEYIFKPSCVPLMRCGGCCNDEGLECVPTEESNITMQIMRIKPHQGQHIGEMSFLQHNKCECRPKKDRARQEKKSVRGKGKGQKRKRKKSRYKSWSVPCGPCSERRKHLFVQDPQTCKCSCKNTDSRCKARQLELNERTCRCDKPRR
Chain of VEGFR2 (P35968 20-1356): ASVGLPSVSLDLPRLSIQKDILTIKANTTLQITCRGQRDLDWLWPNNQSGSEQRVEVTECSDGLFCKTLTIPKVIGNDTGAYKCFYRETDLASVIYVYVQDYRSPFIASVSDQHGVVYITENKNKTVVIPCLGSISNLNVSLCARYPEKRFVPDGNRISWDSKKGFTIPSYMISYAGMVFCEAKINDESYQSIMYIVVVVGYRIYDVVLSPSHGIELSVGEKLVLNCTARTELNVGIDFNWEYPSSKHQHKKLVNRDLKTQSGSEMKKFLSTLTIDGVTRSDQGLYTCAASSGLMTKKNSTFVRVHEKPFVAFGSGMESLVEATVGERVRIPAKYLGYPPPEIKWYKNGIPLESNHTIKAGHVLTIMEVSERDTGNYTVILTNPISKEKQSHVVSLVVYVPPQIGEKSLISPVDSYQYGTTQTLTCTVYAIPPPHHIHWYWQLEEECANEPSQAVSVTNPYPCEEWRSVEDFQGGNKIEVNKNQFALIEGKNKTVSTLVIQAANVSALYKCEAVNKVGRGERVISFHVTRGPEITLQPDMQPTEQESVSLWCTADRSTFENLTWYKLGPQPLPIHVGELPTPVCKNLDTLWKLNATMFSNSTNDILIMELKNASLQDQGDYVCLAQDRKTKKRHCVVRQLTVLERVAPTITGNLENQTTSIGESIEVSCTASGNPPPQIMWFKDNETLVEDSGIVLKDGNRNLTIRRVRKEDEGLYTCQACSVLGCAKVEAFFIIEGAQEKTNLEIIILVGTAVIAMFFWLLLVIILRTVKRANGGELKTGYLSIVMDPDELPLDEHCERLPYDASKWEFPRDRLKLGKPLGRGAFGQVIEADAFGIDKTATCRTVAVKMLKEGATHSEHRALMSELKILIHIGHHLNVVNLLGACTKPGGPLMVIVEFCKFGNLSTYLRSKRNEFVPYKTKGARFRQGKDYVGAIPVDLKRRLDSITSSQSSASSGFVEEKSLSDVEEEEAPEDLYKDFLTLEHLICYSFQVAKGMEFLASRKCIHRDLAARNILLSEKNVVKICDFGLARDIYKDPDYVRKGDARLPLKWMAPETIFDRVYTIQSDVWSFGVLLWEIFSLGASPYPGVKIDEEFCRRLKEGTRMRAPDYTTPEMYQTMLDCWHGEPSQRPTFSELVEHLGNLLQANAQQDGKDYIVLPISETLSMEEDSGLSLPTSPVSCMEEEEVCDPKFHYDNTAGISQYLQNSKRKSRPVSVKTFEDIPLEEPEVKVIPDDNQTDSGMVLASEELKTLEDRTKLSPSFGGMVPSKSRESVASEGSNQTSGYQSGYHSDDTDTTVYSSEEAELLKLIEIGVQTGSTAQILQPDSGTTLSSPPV
Chain of VEGFR1 (P17948 27-1338): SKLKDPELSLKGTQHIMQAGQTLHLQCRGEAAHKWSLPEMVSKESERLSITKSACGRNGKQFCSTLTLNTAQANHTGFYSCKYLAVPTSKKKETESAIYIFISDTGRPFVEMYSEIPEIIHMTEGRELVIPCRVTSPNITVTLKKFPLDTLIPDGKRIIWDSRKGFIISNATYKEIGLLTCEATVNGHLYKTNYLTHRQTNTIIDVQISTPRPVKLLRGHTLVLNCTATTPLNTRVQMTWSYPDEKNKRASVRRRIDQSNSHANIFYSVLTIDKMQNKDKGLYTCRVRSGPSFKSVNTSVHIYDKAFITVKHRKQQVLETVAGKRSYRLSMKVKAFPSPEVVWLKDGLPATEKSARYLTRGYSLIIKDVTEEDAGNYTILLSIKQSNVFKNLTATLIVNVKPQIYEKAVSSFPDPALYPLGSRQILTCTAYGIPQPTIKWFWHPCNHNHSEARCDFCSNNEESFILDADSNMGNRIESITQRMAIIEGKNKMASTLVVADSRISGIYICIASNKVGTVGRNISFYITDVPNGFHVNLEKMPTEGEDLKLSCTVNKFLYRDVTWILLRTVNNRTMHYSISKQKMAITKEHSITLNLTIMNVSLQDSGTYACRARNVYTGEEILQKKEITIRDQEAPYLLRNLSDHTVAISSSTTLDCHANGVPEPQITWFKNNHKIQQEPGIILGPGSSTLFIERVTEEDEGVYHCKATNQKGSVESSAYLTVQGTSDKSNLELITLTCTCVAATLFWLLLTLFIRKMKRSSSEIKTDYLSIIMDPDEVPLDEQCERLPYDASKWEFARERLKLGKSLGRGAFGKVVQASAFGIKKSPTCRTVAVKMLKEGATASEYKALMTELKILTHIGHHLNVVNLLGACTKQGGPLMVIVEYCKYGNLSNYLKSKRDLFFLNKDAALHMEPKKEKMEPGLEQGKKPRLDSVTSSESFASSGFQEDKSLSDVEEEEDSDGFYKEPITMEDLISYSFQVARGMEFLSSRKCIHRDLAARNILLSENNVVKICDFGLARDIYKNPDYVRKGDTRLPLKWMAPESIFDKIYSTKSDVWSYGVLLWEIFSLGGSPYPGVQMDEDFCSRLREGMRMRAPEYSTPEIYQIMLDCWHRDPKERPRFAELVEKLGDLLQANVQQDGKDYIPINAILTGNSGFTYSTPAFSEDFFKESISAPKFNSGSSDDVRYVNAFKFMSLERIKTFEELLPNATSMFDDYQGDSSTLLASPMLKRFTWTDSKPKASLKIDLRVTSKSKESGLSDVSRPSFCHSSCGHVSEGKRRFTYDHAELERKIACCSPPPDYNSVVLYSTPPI

As to VEGFR1 (from UniProt P17948), in the data set with VEGF-A165 (Homo sapiens) [1], the Kd was 0.00933 nM.
With VEGFR2 (from UniProt P35968), in the data set with VEGF-A165 (Homo sapiens) [2], the Kd was 0.0888 nM.
For the substance ziv-aflibercept (Zaltrap, 25 mg/mL), the abundance of non-natural HMW aggregates (% of total peak area) was 7.2% and a higher order of aggregation at 5.46 min (5.56%) in data set [3]; 1.1% in data set [4]; 22.1% in [5]; 55.2% in data set [6]; 0.8% in data set [7].
“ziv-aflibercept (Zaltrap, 25 mg/mL) (Fc fusion)”: the abundance of dimer (% of total peak area) in [8] stood at 19%; in [9], 1.4%; in [10] it was 8%; in data set [11], 7.8%; in [12] it was 7.7%; in [13], 2%. For the same substance, the abundance of dimer (% of total peak area) in [14] is 1.8%; in [15], 1.9%; in [16], 2.1%; in data set [19] it was 12.4%; in data set [20] it was 12.2%; in [21], 1.9%. Further, the stoichiometry N was 10 in [11] and 2 in data set [21]. In addition, the remaining biological activity (ELISA against the control, test samples at 10 and 100 µg/ml) in the data set with VEGF [17] was 36%; with VEGF [18], 25%.

The term Kd denotes the equilibrium constant for the complex coming apart. A word on the stoichiometry N: it is the number of molecules, sites or subunits per partner or assembly.
